The target in assay [1] is T1, TP53 wild-type peptide on HLA-A*02:01 (human).
T1 peptide: HMTEVVRRC
Briefly: cytokine release.

In assay [2] the target is T2, TP53 R175H peptide on HLA-A*02:01 (human).
T2 peptide: HMTEVVRHC
As to the kind of experiment: multimer staining.

B1: TCR 3A (TCR, V domains shown)
Valpha: GEDVEQSLFLSVREGDSSVINCTYTDSSSTYLYWYKQEPGAGLQLLTYIFSNMDMKQDQRLTVLLNKKDKHLSLRIADTQTGDSAIYFCAEISANQAGTALIFGKGTTLSVSS
Vbeta: DTGVSQNPRHKITKRGQNVTFRCDPISEHNRLYWYRQTLGQGPEFLTYFQNEAQLEKSRLLSDRFSAERPKGSFSTLEIQRTEQGDSAMYLCASSPLDSYQETQYFGPGTRLLVL
B1: the binding result in assay [1] is listed as “no recognition”; in assay [2], “recognises”.

B2: TCR 3C (TCR, V domains shown)
Valpha: GEDVEQSLFLSVREGDSSVINCTYTDSSSTYLYWYKQEPGAGLQLLTYIFSNMDMKQDQRLTVLLNKKDKHLSLRIADTQTGDSAIYFCAEGYGGKLIFGQGTELSVKP
Vbeta: GAGVSQTPSNKVTEKGKYVELRCDPISGHTALYWYRQSLGQGPEFLIYFQGTGAADDSGLPNDRFFAVRPEGSVSTLKIQRTERGDSAVYLCASSSKTGVVGEQFFGPGTRLTVL
Regarding B2, the binding result in assay [1] was “no recognition”; in assay [2], “recognises”.

B3: TCR 1C (TCR, V domains shown)
Valpha: DQQVKQNSPSLSVQEGRISILNCDYTNSMFDYFLWYKKYPAEGPTFLISISSIKDKNEDGRFTVFLNKSAKHLSLHIVPSQPGDSAVYFCAATVGLAGNMLTFGGGTRLMVKP
Vbeta: DSGVTQTPKHLITATGQRVTLRCSPRSGDLSVYWYQQSLDQGLQFLIQYYNGEERAKGNILERFSAQQFPDLHSELNLSSLELGDSALYFCASSTPLSGSSTDTQYFGPGTRLTVL
For B3, the binding result in assay [1] is listed as “no recognition”; in assay [2] it was “recognises”.

B4: TCR 1D (TCR, V domains shown)
Valpha: EDQVTQSPEALRLQEGESSSLNCSYTVSGLRGLFWYRQDPGKGPEFLFTLYSAGEEKEKERLKATLTKKESFLHITAPKPEDSATYLCAVHSNYQLIWGAGTKLIIKP
Vbeta: DSGVTQTPKHLITATGQRVTLRCSPRSGDLSVYWYQQSLDQGLQFLIHYYNGEERAKGNILERFSAQQFPDLHSELNLSSLELGDSALYFCASSTPLRTRGTDTQYFGPGTRLTVL
Take B4: the binding result in assay [1] is “no recognition”; in assay [2], “recognises”.

B5: TCR 7D (TCR, V domains shown)
Valpha: QKEVEQDPGPLSVPEGAIVSLNCTYSNSAFQYFMWYRQYSRKGPELLMYTYSSGNKEDGRFTAQVDKSSKYISLFIRDSQPSDSATYLCASSFSGYNKLIFGAGTRLAVHP
Vbeta: DSGVTQTPKHLITATGQRVTLRCSPRSGDLSVYWYQQSLDQGLQFLIQYYNGEERAKGNILERFSAQQFPDLHSELNLSSLELGDSALYFCASSERLAGAIADTQYFGPGTRLTVL
Consider B5, for which the binding result is reported as “no recognition” in assay [1] and “recognises” in assay [2].

B6: TCR 3B (TCR, V domains shown)
Valpha: AQKITQTQPGMFVQEKEAVTLDCTYDTSDQSYGLFWYKQPSSGEMIFLIYQGSYDEQNATEGRYSLNFQKARKSANLVISASQLGDSAMYFCAMREGRGRRALTFGSGTRLQVQP
Vbeta: ETGVTQTPRHLVMGMTNKKSLKCEQHLGHNAMYWYKQSAKKPLELMFVYSLEERVENNSVPSRFSPECPNSSHLFLHLHTLQPEDSALYLCASSQDTAWDSGGETDTQYFGPGTRLTVL
In the case of B6, the binding result in assay [1] is “no recognition”; in assay [2], “recognises”.

B7: TCR 1B (TCR, V domains shown)
Valpha: AQKITQTQPGMFVQEKEAVTLDCTYDTSDPSYGLFWYKQPSSGEMIFLIYQGSYDQQNATEGRYSLNFQKARKSANLVISASQLGDSAMYFCAMREGFSGGYNKLIFGAGTRLAVHP
Vbeta: DAGVTQSPTHLIKTRGQQVTLRCSPISGHKSVSWYQQVLGQGPQFIFQYYEKEERGRGNFPDRFSARQFPNYSSELNVNALLLGDSALYLCASSDDTGTTKSSGANVLTFGAGSRLTVL
As for B7, the binding result is “no recognition” in assay [1] and “recognises” in assay [2].

B8: TCR 1A (TCR, V domains shown)
Valpha: SQQGEEDPQALSIQEGENATMNCSYKTSINNLQWYRQNSGRGLVHLILIRSNEREKHSGRLRVTLDTSKKSSSLLITASRAADTASYFCATGSNYGGSQGNLIFGKGTKLSVKP
Vbeta: EAGVAQSPRYKIIEKRQSVAFWCNPISGHATLYWYQQILGQGPKLLIQFQNNGVVDDSQLPKDRFSAERLKGVDSTLKIQPAKLEDSAVYLCASSLDYGSSYEQYFGPGTRLTVT
For the molecule B8, the binding result in assay [1] is on record as “no recognition”; in assay [2], “recognises”.

B9: TCR 7B (TCR, V domains shown)
Valpha: DAKTTQPTSMDCAEGRAANLPCNHSTISGNEYVYWYRQIHSQGPQYIIHGLKNNETNEMASLIITEDRKSSTLILPHATLRDTAVYYCIVPRGFSNTGKLIFGQGTTLQVKP
Vbeta: GAVVSQHPSRVICKSGTSVKIECRSLDFQATTMFWYRQFPKQSLMLMATSNEGSKATYEQGVEKDKFLINHASLTLSTLTVTSAHPEDSSFYICSASESLALASEQYFGPGTRLTVT
Regarding B9, the binding result in assay [1] is recorded as “no recognition”; in assay [2] it was “recognises”.

B10: TCR 7A (TCR, V domains shown)
Valpha: AQKVTQAQTEISVVEKEDVTLDCVYETRDTTYYLFWYKQPPSGELVFLIRRNSFDEQNEISGRYSWNFQKSTSSFNFTITASQVVDSAVYFCALRNSGNTPLVFGKGTRLSVIA
Vbeta: DSGVTQTPKHLITATGQRVTLRCSPRSGDLSVYWYQQSLDQGLQFLIQYYNGEERAKGNILERFSAQQFPDLHSELNLSSLELGDSALYFCASSVDWVQETQYFGPGTRLLVL
For the molecule B10, the binding result in assay [1] was “no recognition”; in assay [2] it was “recognises”.

B11: TCR 4A (TCR, V domains shown)
Valpha: AQTVTQSQPEMSVQEAETVTLSCTYDTSESNYYLFWYKQPPSRQMILVIRQEAYKQQNATENRFSVNFQKAAKSFSLKISDSQLGDTAMYFCAFMKWQGGSEKLVFGKGTKLTVNP
Vbeta: DTAVSQTPKYLVTQMGNDKSIKCEQNLGHDTMYWYKQDSKKFLKIMFSYNNKELIINETVPNRFSPKSPDKAHLNLHINSLELGDSAVYFCASSQALAGEVDTQYFGPGTRLTVL
B11: the binding result in assay [1] was “no recognition”; in assay [2], “recognises”.

B12: TCR 8A (TCR, V domains shown)
Valpha: AQSVAQPEDQVNVAEGNPLTVKCTYSVSGNPYLFWYVQYPNRGLQFLLKYITGDNLVKGSYGFEAEFNKSQTSFHLKKPSALVSDSALYFCAVRAPGNTPLVFGKGTRLSVIA
Vbeta: DTAVSQTPKYLVTQMGNDKSIKCEQNLGHDTMYWYKQDSKKFLKIMFSYNNKELIINETVPNRFSPKSPDKAHLNLHINSLELGDSAVYFCASSQDLGFDEKLFFGSGTQLSVL
As for B12, the binding result is “no recognition” in assay [1] and “recognises” in assay [2].

The record behind these values is patent US20260232801A1 (published 2026).
